{"source": "ChEMBL document CHEMBL1142886", "about": "“Substrate specificity analysis and inhibitor design of homoisocitrate dehydrogenase” (Bioorg Med Chem, 2007)", "key": {"[1]": {"substrate": "C=CCCC[C@H](C(=O)O)[C@@H](O)C(=O)O", "experiment": "(§1) Activity of recombinant Saccharomyces cerevisiae homoisocitrate dehydrogenase expressed in Escherichia coli Rosetta cells"}, "[2]": {"substrate": "C=CC[C@H](C(=O)O)[C@@H](O)C(=O)O", "experiment": "as §1"}, "[3]": {"substrate": "C=C[C@H](C(=O)O)[C@@H](O)C(=O)O", "experiment": "as §1"}, "[4]": {"substrate": "CCCCC[C@H](C(=O)O)[C@@H](O)C(=O)O", "experiment": "as §1"}, "[5]": {"substrate": "CCC[C@H](C(=O)O)[C@@H](O)C(=O)O", "experiment": "as §1"}, "[6]": {"substrate": "CC[C@H](C(=O)O)[C@@H](O)C(=O)O", "experiment": "as §1"}, "[7]": {"substrate": "C[C@H](C(=O)O)[C@@H](O)C(=O)O", "experiment": "as §1"}, "[8]": {"substrate": "O=C(O)CCCC[C@H](C(=O)O)[C@@H](O)C(=O)O", "experiment": "as §1"}, "[9]": {"substrate": "O=C(O)CCC[C@H](C(=O)O)[C@@H](O)C(=O)O", "experiment": "as §1"}, "[10]": {"substrate": "O=C(O)CC[C@H](C(=O)O)[C@@H](O)C(=O)O", "experiment": "as §1"}, "[11]": {"substrate": "O=C(O)[C@@H](CCCCO)[C@@H](O)C(=O)O", "experiment": "as §1"}, "[12]": {"substrate": "O=C(O)[C@@H](CCCO)[C@@H](O)C(=O)O", "experiment": "as §1"}, "[13]": {"substrate": "O=C(O)[C@@H](CCO)[C@@H](O)C(=O)O", "experiment": "as §1"}, "[14]": {"substrate": "C=CCCC[C@H](C(=O)O)[C@@H](O)C(=O)O", "experiment": "(§2) Ratio of kcat/km of recombinant Saccharomyces cerevisiae homoisocitrate dehydrogenase expressed in Escherichia coli Rosetta cells above 10 mM"}, "[15]": {"substrate": "C=CC[C@H](C(=O)O)[C@@H](O)C(=O)O", "experiment": "as §2"}, "[16]": {"substrate": "C=C[C@H](C(=O)O)[C@@H](O)C(=O)O", "experiment": "as §2"}, "[17]": {"substrate": "CCCCC[C@H](C(=O)O)[C@@H](O)C(=O)O", "experiment": "as §2"}, "[18]": {"substrate": "CCC[C@H](C(=O)O)[C@@H](O)C(=O)O", "experiment": "as §2"}, "[19]": {"substrate": "CC[C@H](C(=O)O)[C@@H](O)C(=O)O", "experiment": "as §2"}, "[20]": {"substrate": "C[C@H](C(=O)O)[C@@H](O)C(=O)O", "experiment": "as §2"}, "[21]": {"substrate": "O=C(O)CCCC[C@H](C(=O)O)[C@@H](O)C(=O)O", "experiment": "as §2"}, "[22]": {"substrate": "O=C(O)CCC[C@H](C(=O)O)[C@@H](O)C(=O)O", "experiment": "as §2"}, "[23]": {"substrate": "O=C(O)CC[C@H](C(=O)O)[C@@H](O)C(=O)O", "experiment": "as §2"}, "[24]": {"substrate": "O=C(O)[C@@H](CCCCO)[C@@H](O)C(=O)O", "experiment": "as §2"}, "[25]": {"substrate": "O=C(O)[C@@H](CCCO)[C@@H](O)C(=O)O", "experiment": "as §2"}, "[26]": {"substrate": "O=C(O)[C@@H](CCO)[C@@H](O)C(=O)O", "experiment": "as §2"}}}
{"protein": "Homoisocitrate dehydrogenase, mitochondrial (Saccharomyces cerevisiae S288c), P40495 (protein) MFRSVATRLSACRGLASNAARKSLTIGLIPGDGIGKEVIPAGKQVLENLNSKHGLSFNFIDLYAGFQTFQETGKALPDETVKVLKEQCQGALFGAVQSPTTKVEGYSSPIVALRREMGLFANVRPVKSVEGEKGKPIDMVIVRENTEDLYIKIEKTYIDKATGTRVADATKRISEIATRRIATIALDIALKRLQTRGQATLTVTHKSNVLSQSDGLFREICKEVYESNKDKYGQIKYNEQIVDSMVYRLFREPQCFDVIVAPNLYGDILSDGAAALVGSLGVVPSANVGPEIVIGEPCHGSAPDIAGKGIANPIATIRSTALMLEFLGHNEAAQDIYKAVDANLREGSIKTPDLGGKASTQQVVDDVLSRL", "values": [{"measurement": "Km", "setting": "[1]", "value": 9400, "unit": "µM"}, {"measurement": "kcat", "setting": "[1]", "value": 0.14, "unit": "s⁻¹"}, {"measurement": "Km", "setting": "[2]", "value": 410, "unit": "µM"}, {"measurement": "kcat", "setting": "[2]", "value": 0.34, "unit": "s⁻¹"}, {"measurement": "Km", "setting": "[3]", "value": 3400, "unit": "µM"}, {"measurement": "kcat", "setting": "[3]", "value": 0.5, "unit": "s⁻¹"}, {"measurement": "Km", "setting": "[4]", "value": 7200, "unit": "µM"}, {"measurement": "kcat", "setting": "[4]", "value": 0.11, "unit": "s⁻¹"}, {"measurement": "Km", "setting": "[5]", "value": 290, "unit": "µM"}, {"measurement": "kcat", "setting": "[5]", "value": 0.7, "unit": "s⁻¹"}, {"measurement": "Km", "setting": "[6]", "value": 600, "unit": "µM"}, {"measurement": "kcat", "setting": "[6]", "value": 0.61, "unit": "s⁻¹"}, {"measurement": "Km", "setting": "[7]", "value": 5700, "unit": "µM"}, {"measurement": "kcat", "setting": "[7]", "value": 0.32, "unit": "s⁻¹"}, {"measurement": "Km", "setting": "[8]", "value": 170, "unit": "µM"}, {"measurement": "kcat", "setting": "[8]", "value": 3.1, "unit": "s⁻¹"}, {"measurement": "Km", "setting": "[9]", "value": 26, "unit": "µM"}, {"measurement": "kcat", "setting": "[9]", "value": 1.6, "unit": "s⁻¹"}, {"measurement": "Km", "setting": "[10]", "value": 18, "unit": "µM"}, {"measurement": "kcat", "setting": "[10]", "value": 17, "unit": "s⁻¹"}, {"measurement": "Km", "setting": "[11]", "value": 440, "unit": "µM"}, {"measurement": "kcat", "setting": "[11]", "value": 2.1, "unit": "s⁻¹"}, {"measurement": "Km", "setting": "[12]", "value": 580, "unit": "µM"}, {"measurement": "kcat", "setting": "[12]", "value": 4.8, "unit": "s⁻¹"}, {"measurement": "Km", "setting": "[13]", "value": 2100, "unit": "µM"}, {"measurement": "kcat", "setting": "[13]", "value": 0.78, "unit": "s⁻¹"}, {"measurement": "kcat/Km", "setting": "[14]", "value": 15, "unit": "M⁻¹ s⁻¹"}, {"measurement": "kcat/Km", "setting": "[15]", "value": 830, "unit": "M⁻¹ s⁻¹"}, {"measurement": "kcat/Km", "setting": "[16]", "value": 150, "unit": "M⁻¹ s⁻¹"}, {"measurement": "kcat/Km", "setting": "[17]", "value": 15, "unit": "M⁻¹ s⁻¹"}, {"measurement": "kcat/Km", "setting": "[18]", "value": 2400, "unit": "M⁻¹ s⁻¹"}, {"measurement": "kcat/Km", "setting": "[19]", "value": 1000, "unit": "M⁻¹ s⁻¹"}, {"measurement": "kcat/Km", "setting": "[20]", "value": 56, "unit": "M⁻¹ s⁻¹"}, {"measurement": "kcat/Km", "setting": "[21]", "value": 18000, "unit": "M⁻¹ s⁻¹"}, {"measurement": "kcat/Km", "setting": "[22]", "value": 62000, "unit": "M⁻¹ s⁻¹"}, {"measurement": "kcat/Km", "setting": "[23]", "value": 940000, "unit": "M⁻¹ s⁻¹"}, {"measurement": "kcat/Km", "setting": "[24]", "value": 4800, "unit": "M⁻¹ s⁻¹"}, {"measurement": "kcat/Km", "setting": "[25]", "value": 8300, "unit": "M⁻¹ s⁻¹"}, {"measurement": "kcat/Km", "setting": "[26]", "value": 370, "unit": "M⁻¹ s⁻¹"}]}
